This note sets out measurements from publication doi:10.1101/2020.10.08.20209114 (medRxiv, 2020).

The assay addresses SARS-CoV-2 RBD protein (SARS-CoV-2 (Wuhan-Hu-1, NC_045512), UniProt P0DTC2). As to the kind of experiment: BLI. For orientation: BLI is a label-free optical method that tracks binding on a fibre tip over time.

B1: monoclonal antibody 4L12 (antibody, V domains shown)
VH: EVQLVESGGGLVQPGGSLRLSCAASGITVSSNYMNWVRQAPGRGLEWVSLLYSGGSTYYADSVKGRFTISRDNSKNTLYLQMNSLRAEDTAVYYCARDLITYGMDVWGQGTTVTVSS
VL: AIQLTQSPSSLSASVGDRVTITCRASQGISSYLAWYQQKPGKAPKLLIYAASTLQSGVPSRFSGSGSGTDFTLTISSLQPEDFATYYCQQLNSYPPLTFGGGTKVEIK
The term Kd denotes the constant that tells how readily two partners part at equilibrium. Take B1: the dissociation constant Kd was 1.49 ± 0.06 nM.

B2: monoclonal antibody 7F3 (antibody, V domains shown)
VH: EVQLVESGGGLVKPGRSLRLSCTASGFTFGDYAMSWFRQAPGKGLEWVGFIRSKAYGGTTEYAASVKGRFTISRDDSKSIAYLQMNSLKTEDTAVYYCTRDRYARYDILTGLSPAGADYFYYAMDVWGQGTTVTVSS
VL: EIVLTQSPATLSLSPGERATLSCRASQSVSSYLAWYQQKPGQAPRLLIYDASNRATGIPARFSGSGSGTDFTLTISSLEPEDFAVYYCQQRSNWPQYTFGQGTKLEIK
B2 showed a Kd of 0.69 ± 0.03 nM.
